Here are results for three molecules from patent US6352723B1, “Brain-derived alkali-soluble immunoregulatory composition” (priority 1999, dated 2002).

Values joined by “and” are separate entries in the source; they are usually repeats but may differ in a detail not shown here. Equal values may be shown once.

This test relates to lymphocytes. In words: Proliferation assay for stimulated lymphocytes (tritiated thymidine incorporation; % suppression, SI). In kind it is cell-based, mice. Particulars: for SI (stimulation index): stimulant alone: OVA 500 μg/ml, PPD 25 μg/ml, ConA 2.5 μg/ml, LPS 10 μg/ml, ionomycin 100 ng/ml with 1 ng/ml PMA. On the technique in general: Dividing cells build labelled thymidine or BrdU into new DNA.

In the case of “Concanavalin A [ConA, reference compound]”, the “SI (stimulation index)” value was 31.2 ± 32.7.
For the molecule “ionomycin at 100 ng/ml with 1 ng/ml phorbol 12-myristate 13 acetate (PMA) [Ionomycin/PMA, reference compound]”, the “SI (stimulation index)” value is given as 23.6 ± 11.2.

B1: chicken ovalbumin (protein, UniProt P01012 2-386, looked up)
Ovalbumin: GSIGAASMEFCFDVFKELKVHHANENIFYCPIAIMSALAMVYLGAKDSTRTQINKVVRFDKLPGFGDSIEAQCGTSVNVHSSLRDILNQITKPNDVYSFSLASRLYAEERYPILPEYLQCVKELYRGGLEPINFQTAADQARELINSWVESQTNGIIRNVLQPSSVDSQTAMVLVNAIVFKGLWEKAFKDEDTQAMPFRVTEQESKPVQMMYQIGLFRVASMASEKMKILELPFASGTMSMLVLLPDEVSGLEQLESIINFEKLTEWTSSNVMEERKIKVYLPRMKMEEKYNLTSVLMAMGITDVFSSSANLSGISSAESLKISQAVHAAHAEINEAGREVVGSAEAGVDAASVSEEFRADHPFLFCIKHIATNAVLFFGRCVSP
notes: Stimulating antigen
For B1, the “SI (stimulation index)” value is 8.8 ± 5.8 and 7.9 ± 4.2. Under “homogenate removed by centrifugation and 0.2μ filter, n=4”, the “SI for chicken ovalbumin incubated with brain homogenate” value amounted to 4.8±1.8. Besides, the “SI for chicken ovalbumin incubated alone” value (incubated without brain homogenate, n=4) was 4.1±0.9.
